Data: US20040203067

Biological target: STAT-3 (endogenous, in 32Dcl3-derived cells) (UniProt P42227)
Sequence (P42227 2-770): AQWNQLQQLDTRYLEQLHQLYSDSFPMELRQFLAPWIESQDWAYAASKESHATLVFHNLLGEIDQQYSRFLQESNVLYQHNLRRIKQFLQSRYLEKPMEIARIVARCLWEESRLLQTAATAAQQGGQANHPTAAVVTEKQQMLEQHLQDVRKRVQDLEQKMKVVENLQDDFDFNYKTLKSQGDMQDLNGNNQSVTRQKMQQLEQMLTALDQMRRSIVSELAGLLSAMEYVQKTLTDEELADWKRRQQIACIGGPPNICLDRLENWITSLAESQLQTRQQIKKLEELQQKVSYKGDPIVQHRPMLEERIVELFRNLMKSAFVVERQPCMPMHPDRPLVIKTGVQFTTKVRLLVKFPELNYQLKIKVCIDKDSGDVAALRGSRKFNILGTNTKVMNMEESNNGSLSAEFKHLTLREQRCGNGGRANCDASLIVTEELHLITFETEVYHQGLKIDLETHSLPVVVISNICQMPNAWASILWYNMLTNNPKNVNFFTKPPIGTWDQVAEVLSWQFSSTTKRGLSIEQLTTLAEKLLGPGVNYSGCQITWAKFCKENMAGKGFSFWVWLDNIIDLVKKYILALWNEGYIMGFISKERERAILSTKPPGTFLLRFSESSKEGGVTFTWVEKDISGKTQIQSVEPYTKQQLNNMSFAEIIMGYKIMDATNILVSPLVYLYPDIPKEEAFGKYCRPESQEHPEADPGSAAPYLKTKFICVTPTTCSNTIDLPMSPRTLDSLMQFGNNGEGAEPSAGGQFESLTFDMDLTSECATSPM

## c-Src (endogenous, activated, in IL-3 stimulated 32Dcl3 cells)
  tyrosine phosphorylation of STAT-3 (4G10 Western blot of STAT-3 immunoprecipitates): phosphorylation of STAT-3 following IL-3 stimulation of 32Dcl3 cells is blocked by AMSrc
